From patent US20040053355A1, “Modular approach to on-line synthesis, drug discovery and biochemical transformations using immobilized enzyme reactors” (priority 2000, published 2004)

Experiments:
[1] = substrate: NCCc1ccc(O)cc1; assay: On-line DBH-Glut-P immobilized enzyme reactor (DBH-Glut-P IMER) HPLC system; type: biochemical, bovine; conditions: other: DBH-IMER (DBH-Glut-P IMER), 0.3 ml/min, contact time 10 min, 37° C.
Text: DBH immobilized on the IAM or Glut-P stationary phase was packed into a 1 cm×10 mm guard (Regis Technologies). The guard was placed in a holder and the resulting column connected to a chromatographic system. THE DBH-IAM-IMER and the DBH-Glut-P-IMER was washed with sodium acetate buffer [0.1M, pH 5.5] and sodium acetate buffer [0.1M, pH 6.0], respectively. The eluent from both IMERs was collected in order to determine if any of the DBH was being washed off the columns. The Biorad assay was utilized to measure the amount of non-immobilized enzyme. When the columns were not in use they were washed with sodium acetate buffer at the respective pHs and stored at 4° C.
Pumps 2 and 3 on system 2 and 3 were stopped. […]
The enzymatic activity on the DBH-Glut-P was determined by quantification of the amount of product formed with a given substrate. […] The kinetic parameters were determined using standard Michaelis-Menten approach. […] The rates of reaction (Vmax) were calculated using […]mol/mg/min. Results are expressed as mean±standard error of the mean (SEM). […]

[2] = substrate: NCCc1ccc(O)cc1; assay: DBH immobilized onto Glut-P stationary phase (DBH-Glut-P, DBH-Glut-P-SP), batch assay; type: biochemical, bovine; conditions: other: DBH-Glut-P (DBH-Glut-P-SP); 37.0 °C
Method: The enzyme was assayed as follows: four different solutions were prepared A, B, C and D (final concentration). (A) 500 μL of enzyme solution (10 μg/ml); B: 275 μL sodium acetate buffer (10 mM, pH 5.5), 50 μL cupric sulphate (5 μM); C: 25 μL catalase (5 μg/ml), 50 μL ascorbic acid (10 mM), 50 μl sodium fumarate (10 mM); D: 50 μl substrate (5 mM). Solution B was added to solution A, the resulting solution was mixed for 1 min. Solution C was added and the resulting solution was mixed for an additional minute. The reaction was started with the addition of the substrate (D), after which the reaction solution was incubated for 5 min at 37° C. in a shaking bath. […]
The packing material was washed three times with sodium acetate buffer (0.1M, pH 6). […] The enzyme solution (8-10 μg in 1 ml sodium acetate buffer] was added to the packing material, the mixture was vortexed for 2 min and then placed on a shaker/rotator for 6 h at ambient temperature. At the end of 6 h, the suspension was centrifuged, the supernatant decanted and the packing material washed three additional times with the buffer. The amount of residual enzyme was determined utilizing the same procedure as that carried out for the enzyme immobilized onto IAM.

Protein | Km [1] | Vmax [1] | Km [2] | Vmax [2]
DBH-Glut-P IMER (immobilized dopamine beta-hydroxylase) (Bos taurus) (protein, purchased) MQVPSPSVREAASMYGTAVAVFLVILVAALQGSAPAESPFPFHIPLDPEGTLELSWNISYAQETIYFQLLVRELKAGVLFGMSDRGELENADLVVLWTDRDGAYFGDAWSDQKGQVHLDSQQDYQLLRAQRTPEGLYLLFKRPFGTCDPNDYLIEDGTVHLVYGFLEEPLRSLESINTSGLHTGLQRVQLLKPSIPKPALPADTRTMEIRAPDVLIPGQQTTYWCYVTELPDGFPRHHIVMYEPIVTEGNEALVHHMEVFQCAAEFETIPHFSGPCDSKMKPQRLNFCRHVLAAWALGAKAFYYPEEAGLAFGGPGSSRFLRLEVHYHNPLVITGRRDSSGIRLYYTAALRRFDAGIMELGLAYTPVMAIPPQETAFVLTGYCTDKCTQLALPASGIHIFASQLHTHLTGRKVVTVLARDGRETEIVNRDNHYSPHFQEIRMLKKVVSVQPGDVLITSCTYNTEDRRLATVGGFGILEEMCVNYVHYYPQTQLELCKSAVDPGFLHKYFRLVNRFNSEEVCTCPQASVPEQFASVPWNSFNREVLKALYGFAPISMHCNRSSAVRFQGEWNRQPLPEIVSRLEEPTPHCPASQAQSPAGPTVLNISGGKG | 2760 µM | 0.079 µmol/mg/min | – | –
dopamine beta-hydroxylase immobilized onto Glut-P (DBH-Glut-P) (Bos taurus) (protein, purchased) MQVPSPSVREAASMYGTAVAVFLVILVAALQGSAPAESPFPFHIPLDPEGTLELSWNISYAQETIYFQLLVRELKAGVLFGMSDRGELENADLVVLWTDRDGAYFGDAWSDQKGQVHLDSQQDYQLLRAQRTPEGLYLLFKRPFGTCDPNDYLIEDGTVHLVYGFLEEPLRSLESINTSGLHTGLQRVQLLKPSIPKPALPADTRTMEIRAPDVLIPGQQTTYWCYVTELPDGFPRHHIVMYEPIVTEGNEALVHHMEVFQCAAEFETIPHFSGPCDSKMKPQRLNFCRHVLAAWALGAKAFYYPEEAGLAFGGPGSSRFLRLEVHYHNPLVITGRRDSSGIRLYYTAALRRFDAGIMELGLAYTPVMAIPPQETAFVLTGYCTDKCTQLALPASGIHIFASQLHTHLTGRKVVTVLARDGRETEIVNRDNHYSPHFQEIRMLKKVVSVQPGDVLITSCTYNTEDRRLATVGGFGILEEMCVNYVHYYPQTQLELCKSAVDPGFLHKYFRLVNRFNSEEVCTCPQASVPEQFASVPWNSFNREVLKALYGFAPISMHCNRSSAVRFQGEWNRQPLPEIVSRLEEPTPHCPASQAQSPAGPTVLNISGGKG | – | – | 1040 µM | 0.112 µmol/mg/min
